In patent US20250263482A1:

Target: human CLDN18.2 expressed on cells (human)
Assay: cell-based or functional assay

Question: Human IgG1 isotype antibody was tested. Which ADCC on KATOIII CLDN18.2 cells, LDH: max (% cytotoxity), run A did it give?
Answer: 0.3%

Question: And the ADCC on KATOIII CLDN18.2 cells, LDH: max (% cytotoxity), run B?
Answer: -5.51%

Question: What about the ADCC on KATOIII CLDN18.2 cells, LDH: max (% cytotoxity), run C of the same substance?
Answer: -7.64%

Question: What about the ADCC on NCI-N87 CLDN18.2 cells, LDH: max (% cytotoxity), run A of the same substance?
Answer: -6.73%

Question: What about the ADCC on NCI-N87 CLDN18.2 cells, LDH: max (% cytotoxity), run B of the same substance?
Answer: -11.7%

Question: What about the ADCC on NCI-N87 CLDN18.2 cells, LDH: max (% cytotoxity), run C of the same substance?
Answer: -9.22%

Question: What about the CDC on CT26 CLDN18.2 cells, LDH: max (% cytotoxity), run A of the same substance?
Answer: 10.8%

Question: What about the CDC on CT26 CLDN18.2 cells, LDH: max (% cytotoxity), run B of the same substance?
Answer: -0.23%

Question: And the CDC on CT26 CLDN18.2 cells, LDH: max (% cytotoxity), run C?
Answer: -0.38%

Question: And the CDC on KATOIII CLDN18.2 cells, LDH: max (% cytotoxity), run A?
Answer: -0.85%

Question: What about the CDC on KATOIII CLDN18.2 cells, LDH: max (% cytotoxity), run B of the same substance?
Answer: -2.46%

Question: And the CDC on KATOIII CLDN18.2 cells, LDH: max (% cytotoxity), run C?
Answer: -1.53%
